Reference: patent publication US20170152290A1

Key:
[1] = molecular target: LRP1 receptor (Low Density Lipoprotein Receptor-Related Protein) on Vero cells; assay: cell-based or functional assay
[2] = molecular target: T1, sLRP1-CIV (cluster IV of LRP1 fused to the constant region of a human IgG1) (human); assay: SPR (Biacore X), sLRP1-CIV immobilised on CM5 chip, peptide at 20 µM; RU at 270 s
[3] = molecular target: T1, sLRP1-CIV (cluster IV of LRP1 fused to …); assay: SPR (Biacore X), sLRP1-CIV immobilised on CM5 chip, peptide at 20 µM; RU observed at 160 s

Binder | Antiviral activity in Vero cells, IC50 (plaque reduction, DENV2) [1] | RU (at 270 s) [2] | also measured
CVNWTEPDKKVNWCKKK (modifications not checked) [beta hairpin peptide PHB1] | 75 µM | 117 RU | –
CSNIVIGIGDKALKINACKKK (modifications not checked) [peptide HDIII3CLW-] | > 100 µM | – | –
CSNIVIGIGDKALAINWCKKK (modifications not checked) [peptide HDIII3CLK-] | > 100 µM | – | RU (at 160 s) [3]: 276 RU
CIEVYVTINGKKYNWFICKKK (modifications not checked) [beta hairpin peptide PHB9] | 7 µM | 1080 RU | –
SSNIVIGIGDKALKINWSKKK (modifications not checked) [peptide HDIII3CLC-] | > 100 µM | – | –
CIEVYWTRPKWKVNWFICKKK (modifications not checked) [beta hairpin peptide PHB4] | 0.003 µM | 3600 RU | Antiviral activity IC50 vs DENV1 (plaque reduction, Vero cells) [1]: 0.002 µM; Antiviral activity IC50 vs DENV2 (plaque reduction, Vero cells) [1]: 0.003 µM; Antiviral activity IC50 vs DENV3 (plaque reduction, Vero cells) [1]: 0.005 µM; Antiviral activity IC50 vs DENV4 (plaque reduction, Vero cells) [1]: 0.01 µM
CIEVNVTINGKKYNWFICKKK (modifications not checked) [beta hairpin peptide PHB8] | 15 µM | – | –
CVNVTINGKKYNWCKKK (modifications not checked) [beta hairpin peptide PHB7] | 79 µM | – | –
CIEVNWTEPDKKVNWFICKKK (modifications not checked) [beta hairpin peptide PHB3] | 17 µM | – | –
CSNIVIGIGDKALKINWCKKK (modifications not checked) [peptide HDIII3CL2] | 20 µM | – | RU (at 160 s) [3]: 1010 RU
FWNWKWEKNKWTWNVEGGKKK (modifications not checked) [beta hairpin peptide PHB5] | 17 µM | 175 RU | –
FWNWKWEPNKWTWNVEGGKKK (modifications not checked) [beta hairpin peptide PHB6] | 33 µM | – | –
CVYWTRPKWKVNWCKKK (modifications not checked) [beta hairpin peptide PHB2] | 12 µM | 861 RU | –
